Data published in patent US20240287138A1 (Merck Sharp & Dohme, published 2024).
Numbered stars: 1 amine (or outer) side, 2 acyl side, 3 side chain; on linkers, the order of the positions; unused ones are H or OH. Bridge positions count the residues as written; N and C are the ends. Square brackets hold non-standard residues; d marks the D form. Primed or numbered codes have the meaning given here. * marks the point of attachment. RbOHPhe4CONH2 = (2S,3R)-2-amino-3-(4-carbamoylphenyl)-3-hydroxypropanoic acid, NC(=O)c1ccc([C@@H](O[*:3])[C@H](N[*:1])C(=O)[*:2])cc1; bhcLeu = (1R,3S)-3-aminocyclopentane-1-carboxylic acid, O=C([C@@H]1CC[C@H](N[*:1])C1)[*:2]; Trp(βS-Me,7-OMe) = COc1cccc2c([C@H](C)[C@H](N)C(=O)O)c[nH]c12; dPro(trans-4-NMe2) = CN(C)[C@@H]1CN[C@@H](C(=O)O)C1; Trp(7-CN) = N#Cc1cccc2c(C[C@H](N)C(=O)O)c[nH]c12; Trp(7-Cl) = N[C@@H](Cc1c[nH]c2c(Cl)cccc12)C(=O)O; Biotin = O=C1N[C@H]2[C@H](CS[C@H]2CCCCC(=O)*)N1; Phe(4-CONH2) = NC(=O)c1ccc(C[C@H](N)C(=O)O)cc1; Phe(4-COOH) = N[C@@H](Cc1ccc(C(=O)O)cc1)C(=O)O; Trp(7-aza) = N[C@@H](Cc1c[nH]c2ncccc12)C(=O)O; Pip(4-aza) = O=C(O)[C@@H]1CNCCN1; 4Pal = N[C@@H](Cc1ccncc1)C(=O)O; NMeE = CN[C@@H](CCC(=O)O)C(=O)O; dHyp = O=C(O)[C@H]1C[C@H](O)CN1; 40Me3Pal = not defined here; Pipt5OH = not defined here; αMeS = C[C@](N)(CO)C(=O)O; Nle = CCCC[C@H](N)C(=O)O; Pip2c = not defined here; Ahp′ = not defined here; AEA = NCCOCC(=O)O; Sar = CNCC(=O)O

T1: TNFR1 on THP-1 Lucia NF-κB reporter cells (UniProt P19438 30-455, limits assumed)
T1 sequence (looked up): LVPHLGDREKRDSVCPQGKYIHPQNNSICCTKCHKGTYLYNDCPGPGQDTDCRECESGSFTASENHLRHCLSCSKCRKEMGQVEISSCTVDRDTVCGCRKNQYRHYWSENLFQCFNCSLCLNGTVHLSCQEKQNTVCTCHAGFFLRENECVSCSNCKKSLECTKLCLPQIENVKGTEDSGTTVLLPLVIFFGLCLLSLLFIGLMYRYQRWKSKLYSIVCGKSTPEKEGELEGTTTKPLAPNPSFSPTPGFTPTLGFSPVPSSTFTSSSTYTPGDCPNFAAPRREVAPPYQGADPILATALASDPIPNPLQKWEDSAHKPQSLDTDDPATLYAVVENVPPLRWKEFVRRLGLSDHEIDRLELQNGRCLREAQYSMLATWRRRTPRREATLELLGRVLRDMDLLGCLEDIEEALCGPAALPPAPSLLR

T2: TNFR1 on THP-1 Lucia NF-kB reporter cells (UniProt P19438 30-455, limits assumed)
T2 sequence (looked up): T1 sequence (looked up)

T3: C-terminally 6His-tagged human soluble TNFR1 (sTNFR1, residues 1-211), purified from a Sf21 baculovirus … (human)
T3 construct: ID NO; The text says 'residues 1-211'; also called sTNFR1-6His; ID NO; P1
T3 chain: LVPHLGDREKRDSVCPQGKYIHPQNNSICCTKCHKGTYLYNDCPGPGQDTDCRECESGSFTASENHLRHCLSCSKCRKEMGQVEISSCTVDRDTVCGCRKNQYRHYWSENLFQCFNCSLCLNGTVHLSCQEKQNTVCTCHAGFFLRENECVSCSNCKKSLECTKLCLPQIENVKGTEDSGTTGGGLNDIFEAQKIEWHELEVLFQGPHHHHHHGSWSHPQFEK

B1: SEQ ID NO. 287 (Example No. 287) macrocyclic peptide (peptide)
peptide: cyclo([bhcLeu][Nle][4Pal][Pip(4-aza)][Trp(7-aza)][dPro(trans-4-NMe2)]N[Phe(4-COOH)][Trp(7-CN)][αMeS][Phe(4-COOH)][RbOHPhe4CONH2][Sar][Trp(βS-Me,7-OMe)])
SMILES: CCCC[C@@H]1NC(=O)[C@@H]2CC[C@@H](C2)NC(=O)[C@H]([C@@H](C)c2c[nH]c3c(OC)cccc23)NC(=O)CN(C)C(=O)[C@H]([C@H](O)c2ccc(C(N)=O)cc2)NC(=O)[C@H](Cc2ccc(C(=O)O)cc2)NC(=O)[C@](C)(CO)NC(=O)[C@H](Cc2c[nH]c3c(C#N)cccc23)NC(=O)[C@H](Cc2ccc(C(=O)O)cc2)NC(=O)[C@H](CC(N)=O)NC(=O)[C@H]2C[C@H](N(C)C)CN2C(=O)[C@H](Cc2c[nH]c3ncccc23)NC(=O)[C@@H]2CNCCN2C(=O)[C@H](Cc2ccncc2)NC1=O
B2: SEQ ID NO. 78 (peptide)
peptide: cyclo([bhcLeu][Nle][4Pal][Pipt5OH]W[dHyp][RbOHAsn][4Pal][Trp(7-CN)][αMeS][Phe(4-CONH2)][Phe(4-COOH)][Sar][Trp(βS-Me,7-OMe)])
modifications: reading uncertain; also: printed as cyclo(bhcLeu-Nle-4Pal-Pipt5OH-W-dProt4OH-RbOHAsn-4Pal-Trp7CN-aMeS-Phe4CONH2-Phe4COOH-Sar-SbMeW7OMe)
B3: SEQ ID NO. 88 (peptide)
peptide: cyclo([bhcLeu][Nle][4Pal][Pipt5OH]W[dHyp]N[AlaPyrim4COOH][Trp(7-Cl)][αMeS][Phe(4-CONH2)][Phe(4-COOH)][Sar][Trp(βS-Me,7-OMe)])
modifications: reading uncertain; also: printed as cyclo(bhcLeu-Nle-4Pal-Pipt5OH-W-dProt4OH-N-AlaPyrim4COOH-Trp7Cl-aMeS-Phe4CONH2-Phe4COOH-Sar-SbMeW7OMe)
B4: SEQ ID NO. 98 (peptide)
peptide: cyclo([bhcLeu][Ahp′][SbMe4Pal]HW[dHyp]N[Phe(4-COOH)][Trp(7-CN)][αMeS][Phe(4-CONH2)][Phe(4-CONH2)][Sar][Trp(βS-Me,7-OMe)])
modifications: reading uncertain; also: printed as cyclo(bhcLeu-Ahp-SbMe4Pal-H-W-dProt4OH-N-Phe4COOH-Trp7CN-aMeS-Phe4CONH2-Phe4CONH2-Sar-SbMeW7OMe)
B5: SEQ ID NO. 100 (peptide)
peptide: cyclo([bhcLeu][Nle][4Pal][Pip2c]W[NMeE]N[40Me3Pal][Trp(7-Cl)][αMeS][Phe(4-COOH)]Y[Sar][Trp(βS-Me,7-OMe)])
modifications: reading uncertain; also: printed as cyclo(bhcLeu-Nle-4Pal-Pip2c-W-NMeE-N-40Me3Pal-Trp7Cl-aMeS-Phe4COOH-Y-Sar-SbMeW7OMe)
B6: biotinylated peptide SEQ ID NO. 1 (TR-FRET probe): cyclo(ClAc-F-Y-S-W-Sar-N-Y-W-S-Y-Y-Sar-W-C)-G-Aea-K(N-Biotin)-NH2 (peptide)
peptide: {CH2CO}-FYSW[Sar]NYWSYY[Sar]WCG[AEA]K(Biotin)-NH2
modifications: thioether N-14
SMILES: CN1CC(=O)N[C@@H](CC(N)=O)C(=O)N[C@@H](Cc2ccc(O)cc2)C(=O)N[C@@H](Cc2c[nH]c3ccccc23)C(=O)N[C@@H](CO)C(=O)N[C@@H](Cc2ccc(O)cc2)C(=O)N[C@@H](Cc2ccc(O)cc2)C(=O)N(C)CC(=O)N[C@@H](Cc2c[nH]c3ccccc23)C(=O)N[C@H](C(=O)NCC(=O)NCCOCC(=O)N[C@@H](CCCCNC(=O)CCCC[C@@H]2SC[C@@H]3NC(=O)N[C@@H]32)C(N)=O)CSCC(=O)N[C@@H](Cc2ccccc2)C(=O)N[C@@H](Cc2ccc(O)cc2)C(=O)N[C@@H](CO)C(=O)N[C@@H](Cc2c[nH]c3ccccc23)C1=O
notes: Synthetic thioether macrocycle made by Procedure A, with a Gly-Aea spacer and Lys(biotin) on the carboxy group of the C-terminal cysteine; also called biotin-tagged B0372 peptide

Legend:
[1] = molecular target: T1, TNFR1 on THP-1 Lucia NF-κB reporter …; assay: cell-based or functional assay
[2] = molecular target: T2, TNFR1 on THP-1 Lucia NF-kB reporter …; assay: cell-based or functional assay
[3] = molecular target: T3, C-terminally 6His-tagged human soluble …; assay: TR-FRET binding assay, probe peptide with sTNFR1-6His (0.25 nM)

Row | Binder | THP-1 IC50 [2] | other results
1 | B1 |  | THP-1 IC50 [1]: 1.7 nM
2 | B2 | 0.7 nM | 
3 | B3 | 1.9 nM | 
4 | B4 | 1.5 nM | 
5 | B5 | 1.3 nM | 
6 | B6 |  | Kd [3]: ~100 nM
